Laboratory results reported in PMC5042466, “Irreversible Inhibition of Glutathione S-Transferase by Phenethyl Isothiocyanate (PEITC), a Dietary Cancer Chemopreventive Phytochemical” (PLoS ONE, 2016).

Molecular target: the molecule itself
Assay: crystal structure; hGSTA1 (13 mg/ml) mixed with GSH and PEITC, 6 h at 4°C; sitting drop, 20% PEG 3350, 0.2 M sodium acetate; 1.93 Å, space group C2

B1: human alpha class glutathione S-transferase of subunit type 1 (hGSTA1), Cys112-PEITC adduct, with GS-PEITC bound (enzyme)
chain: AEKPKLHYFNARGRMESTRWLLAAAGVEFEEKFIKSAEDLDKLRNDGYLMFQQVPMVEIDGMKLVQTRAILNYIASKYNLYGKDIKERALIDMYIEGIADLGEMILLLPVCPPEEKDAKLALIKEKIKNRYFPAFEKVLKSHGQDYLVGNKLSRADIHLVELLYYVEELDSSLISSFPLLKALKTRISNLPTVKKFLQPGSPRKPPMDEKSLEEARKIFRF
modifications: Cys112 side chain covalently modified by PEITC (phenethyl isothiocyanate)
notes: glutathione S-transferase alpha 1 (hGSTA1), human; In the crystal the active site holds the small-molecule product GS-PEITC; also called hGSTA1-PEITC; hGSTA1:GS-PEITC; source: prepared as described [11,12]
B1: binds.
